According to patent publication US20200268847A1, “Methods of Treating Newly Diagnosed Multiple Myeloma with a Combination of An Antibody that Specifically Binds CD38, Lenalidomide and Dexamethasone” (Janssen Biotech, Inc., priority 2019, published 2020):

System: patients with newly diagnosed multiple myeloma ineligible for HDC and ASCT
Assay: MAIA: safety, adverse events graded by NCI-CTCAE version 4, treatment discontinuations
Excerpt: Safety will be measured by adverse events, laboratory test results, ECGs, vital sign measurements, physical examination findings, and assessment of ECOG performance status score.
Safety analyses included adverse event assessment graded in severity according to NCI-CTCAE version 4, electrocardiograms, clinical laboratory testing, physical examinations, and vital signs.
The safety population included patients who received any dose of trial treatment.

Daratumumab (DARZALEX®): antibody that specifically binds CD38, heavy chain of SEQ ID NO: 9 and light chain of SEQ ID NO: 10 [reference compound]
infusion-related reactions occurring during the first dose (% of patients with infusion reactions): 98.0%
infusion-related reactions (% of patients, any grade): 40.9%
patients who discontinued daratumumab treatment due to an infusion-related reaction (grade 4 hypertension): one
infusion-related reactions, grade 3 or 4 events (in vivo): 2.7%
infusion-related reactions, grade 5 events (in vivo): no grade 5 events were reported
